Source: patent US6077686, “Shc proteins” (Mount Sinai Hospital Corporation, dated 2000)

B1: GST fusion protein of the ShcC PTB domain (wild type) (other)
chain: LGPGVTYVVKYLGCIEVLRSMRSLDFSTRTQVTREAISRVCERVPGAKGALKKRKPPSKMLSSILGKSNLQFAGMSISLTISTASLNLRTPDSKQIIANHHMRSISFASGGDPDTTDYVAYVAKDPVNRRACHILECCDGLAQDVIGSIGQAFELRFKQYL
B2: GST-ShcC PTB domain mutant T58A (other)
chain: LGPGVTYVVKYLGCIEVLRSMRSLDFSTRAQVTREAISRVCERVPGAKGALKKRKPPSKMLSSILGKSNLQFAGMSISLTISTASLNLRTPDSKQIIANHHMRSISFASGGDPDTTDYVAYVAKDPVNRRACHILECCDGLAQDVIGSIGQAFELRFKQYL
B3: GST-ShcC PTB domain mutant V36M (other)
chain: LGPGVTYMVKYLGCIEVLRSMRSLDFSTRTQVTREAISRVCERVPGAKGALKKRKPPSKMLSSILGKSNLQFAGMSISLTISTASLNLRTPDSKQIIANHHMRSISFASGGDPDTTDYVAYVAKDPVNRRACHILECCDGLAQDVIGSIGQAFELRFKQYL
B4: GST-ShcC PTB domain mutant G32R/A136T/C166R (other)
chain: LGPRVTYVVKYLGCIEVLRSMRSLDFSTRTQVTREAISRVCERVPGAKGALKKRKPPSKMLSSILGKSNLQFAGMSISLTISTASLNLRTPDSKQIIANHHMRSISFTSGGDPDTTDYVAYVAKDPVNRRACHILECRDGLAQDVIGSIGQAFELRFKQYL
B5: GST-ShcC PTB domain mutant E63G (other)
chain: LGPGVTYVVKYLGCIEVLRSMRSLDFSTRTQVTRGAISRVCERVPGAKGALKKRKPPSKMLSSILGKSNLQFAGMSISLTISTASLNLRTPDSKQIIANHHMRSISFASGGDPDTTDYVAYVAKDPVNRRACHILECCDGLAQDVIGSIGQAFELRFKQYL
B6: GST-ShcC PTB domain mutant G32R (other)
chain: LGPRVTYVVKYLGCIEVLRSMRSLDFSTRTQVTREAISRVCERVPGAKGALKKRKPPSKMLSSILGKSNLQFAGMSISLTISTASLNLRTPDSKQIIANHHMRSISFASGGDPDTTDYVAYVAKDPVNRRACHILECCDGLAQDVIGSIGQAFELRFKQYL
B7: GST-ShcC PTB domain mutant A136T/C166R (other)
chain: LGPGVTYVVKYLGCIEVLRSMRSLDFSTRTQVTREAISRVCERVPGAKGALKKRKPPSKMLSSILGKSNLQFAGMSISLTISTASLNLRTPDSKQIIANHHMRSISFTSGGDPDTTDYVAYVAKDPVNRRACHILECRDGLAQDVIGSIGQAFELRFKQYL
B8: GST-ShcC PTB domain mutant S86C (other)
chain: LGPGVTYVVKYLGCIEVLRSMRSLDFSTRTQVTREAISRVCERVPGAKGALKKRKPPCKMLSSILGKSNLQFAGMSISLTISTASLNLRTPDSKQIIANHHMRSISFASGGDPDTTDYVAYVAKDPVNRRACHILECCDGLAQDVIGSIGQAFELRFKQYL
B9: GST-ShcC PTB domain mutant G30R/H128Q (other)
chain: LRPGVTYVVKYLGCIEVLRSMRSLDFSTRTQVTREAISRVCERVPGAKGALKKRKPPSKMLSSILGKSNLQFAGMSISLTISTASLNLRTPDSKQIIANQHMRSISFASGGDPDTTDYVAYVAKDPVNRRACHILECCDGLAQDVIGSIGQAFELRFKQYL
B10: GST-ShcC PTB domain mutant G139E/D140N (other)
chain: LGPGVTYVVKYLGCIEVLRSMRSLDFSTRTQVTREAISRVCERVPGAKGALKKRKPPSKMLSSILGKSNLQFAGMSISLTISTASLNLRTPDSKQIIANHHMRSISFASGENPDTTDYVAYVAKDPVNRRACHILECCDGLAQDVIGSIGQAFELRFKQYL
B11: GST-ShcC PTB domain mutant A136T (other)
chain: LGPGVTYVVKYLGCIEVLRSMRSLDFSTRTQVTREAISRVCERVPGAKGALKKRKPPSKMLSSILGKSNLQFAGMSISLTISTASLNLRTPDSKQIIANHHMRSISFTSGGDPDTTDYVAYVAKDPVNRRACHILECCDGLAQDVIGSIGQAFELRFKQYL
B12: GST-ShcC PTB domain mutant T111I (other)
chain: LGPGVTYVVKYLGCIEVLRSMRSLDFSTRTQVTREAISRVCERVPGAKGALKKRKPPSKMLSSILGKSNLQFAGMSISLTISIASLNLRTPDSKQIIANHHMRSISFASGGDPDTTDYVAYVAKDPVNRRACHILECCDGLAQDVIGSIGQAFELRFKQYL
B13: GST-ShcC PTB domain mutant M130I/S132V (other)
chain: LGPGVTYVVKYLGCIEVLRSMRSLDFSTRTQVTREAISRVCERVPGAKGALKKRKPPSKMLSSILGKSNLQFAGMSISLTISTASLNLRTPDSKQIIANHHIRVISFASGGDPDTTDYVAYVAKDPVNRRACHILECCDGLAQDVIGSIGQAFELRFKQYL
B14: GST-ShcC PTB domain mutant T118S (other)
chain: LGPGVTYVVKYLGCIEVLRSMRSLDFSTRTQVTREAISRVCERVPGAKGALKKRKPPSKMLSSILGKSNLQFAGMSISLTISTASLNLRSPDSKQIIANHHMRSISFASGGDPDTTDYVAYVAKDPVNRRACHILECCDGLAQDVIGSIGQAFELRFKQYL

What follows are molecules tested against EGFR in living cells (293T cells stimulated with EGF; NIH/3T3 cells transformed by overexpression of the EGFR) (assay: not given).

“isolated ShcC SH2 domain expressed in cells (HA epitope-tagged SH2 domain)” showed an EGF-induced MAPK activity (Gal4-Elk-1 / Gal4-Luc luciferase in 293T cells) of 50%.

What follows are molecules tested against autophosphorylated EGF-receptor (from lysates of EGF-stimulated A431 cells) (human, UniProt P00533, autophosphorylated on tyrosine (sites not given)) (assay: binding of GST-PTB to the activated EGFR, normalized to wild type).

Going from B1 to B2, the “Relative Binding” value rises from 1 to 1.2.

Going from B3 to B4, the “Relative Binding” value falls from 1 to 0.14.

Going from B5 to B6, the “Relative Binding” value rises from 0.087 to 0.93.

First: B7
Second: B8
The “Relative Binding” value of the first is lower: 0.12 for the first, 1.2 for the second.

Compared with B9, B10 is lower in “Relative Binding” value: 1 for the first, 0.073 for the second.

First: B11
Second: B12
The “Relative Binding” value of the first is lower: 0.16 for the first, 1.2 for the second.

Compared with B13, B14 is lower in “Relative Binding” value: 1 for the first, 0.81 for the second.
